Assay results published in US20170158761A1 (EWHA UNIVERSITY INDUSTRY COLLABORATION FOUNDATION, published 2017).
Where no end group is shown, it is not given here.

Biological target: T1, Δ-dTCTP (FL deleted dimer TCTP) (Pan troglodytes (Chimpanzee), UniProt A5A6K2 1-172, disulfide bridge between the C-terminal cysteines (Cys172) of the two chains)
T1 construct: also called A-dTCTP; dimer form of FL domain-deleted TCTP
T1 sequence: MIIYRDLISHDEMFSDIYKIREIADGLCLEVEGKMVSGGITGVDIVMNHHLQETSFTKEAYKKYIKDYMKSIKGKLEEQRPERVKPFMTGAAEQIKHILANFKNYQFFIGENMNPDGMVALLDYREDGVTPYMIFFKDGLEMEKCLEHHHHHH
Assay: ELISA: biotinylated dTBP2 (0.01 to 10 µM) on streptavidin plate, TCTP protein at 0.2 µg/ml, anti-HRF rabbit antibody detection
Procedure: To investigate the affinity to dTBP2 of f-TCTP, Δ-dTCTP, and Del-N11dTCTP of the present invention, biotin was conjugated to the COOH-terminus of dTBP2 known to bind to HRF, followed by purification. The purified protein was immobilized in the plastic well coated with streptavidin, to which f-TCTP, Δ-dTCTP, and Del-N11dTCTP were added. Then, the binding strength of each protein was investigated.
Particularly, 50 μL of the biotinylated dTBTP2 dissolved in a buffer (TBS [25 mM Tris, 150 mM NaCl, pH 7.2], 0.1% BSA, 0.05% Tween-20) at different concentrations of […] was added to Reacti-Bind Streptavidin Coated Polystyrene Plates (PIERCE), followed by reaction at room temperature for 2 hours. The plate was washed with a washing buffer three times. Each of f-TCTP, Δ-dTCTP, and Del-N11dTCTP was dissolved in TBS at the concentration of 0.2 μg/ml. 60 μl of the mixture was added to each well of the plate, followed by reaction for 1 hour. The plate was washed with a washing buffer three times. 100 μl of anti-HRF rabbit antibody (Bio-Rad) diluted in a buffer (1:2000) was added to each well of the plate, which stood at room temperature for 30 minutes. […] Color development was measured at 450 nm and 570 nm using an ELISA reader (Bio-Rad), and affinity was determined by the difference.

Binder: WYVYPSM-biotin (also called biotinylated dTBTP2) [biotinylated dTBP2 (dTCTP binding peptide 2)]
- binding result: binds
